# Residue numbers refer to the chain shown, from its start.
# T1: human PVRIG-his (AcroBiosystems, Cat NO. PVG-H52H4) (human, UniProt Q6DKI7 41-171, limits assumed)
# T1 construct: also called human PVRIG protein
# T1 sequence (looked up): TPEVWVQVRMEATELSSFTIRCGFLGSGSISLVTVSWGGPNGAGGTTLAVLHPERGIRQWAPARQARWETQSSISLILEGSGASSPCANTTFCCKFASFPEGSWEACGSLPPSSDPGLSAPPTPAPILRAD
# T2: Fusion protein of extracellular domain of human TIGIT and His-tag (human TIGIT ECD-his) (human)
# T2 chain: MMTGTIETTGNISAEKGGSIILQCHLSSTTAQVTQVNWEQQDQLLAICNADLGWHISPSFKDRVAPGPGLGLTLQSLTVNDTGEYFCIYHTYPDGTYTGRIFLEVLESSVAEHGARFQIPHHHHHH
# T3: Full-length human TIGIT on CHO-K1 cells (CHO-K1 human TIGIT) (human, UniProt Q495A1 22-244)
# T3 construct: NCBI XP_024309156.1; the entry includes the signal peptide (limits not recoverable); The strain (high, medium, low) is named under assay; also called high expression strain 1D2; medium expression strain 2D10
# T3 sequence: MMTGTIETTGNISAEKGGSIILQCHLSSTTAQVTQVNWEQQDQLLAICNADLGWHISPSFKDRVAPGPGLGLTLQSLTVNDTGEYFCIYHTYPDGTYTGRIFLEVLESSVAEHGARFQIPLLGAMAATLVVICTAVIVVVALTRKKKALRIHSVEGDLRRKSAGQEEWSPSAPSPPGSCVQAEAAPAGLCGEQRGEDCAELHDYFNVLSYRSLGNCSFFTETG
# T4: human PVRIG-mFc protein (Acro, PVG-H5253) (human, UniProt Q6DKI7 41-171, limits assumed)
# T4 construct: bought protein
# T4 sequence (looked up): T1 sequence (looked up)
# B1: PVRIG-A50 (Fc fusion)
# chain: EVQLVESGGGLVQPGGSLRLSCAASGFTFSYYDMSWVRQAPGKGLEWVSTINSNGGRTSYVDSVKGRFTISRDNTKNTLYLQMNSLKPEDTAVYYCVEGDPHNFGLENLSLRDFGSWGQGTQVTVSS
# notes: heavy chain antibody VHH-hinge-CH2-CH3, human IgG1 constant part; also called PVRIG-50; not shown: human IgG1 hinge-CH2-CH3
# B2: PVRIG-A105 (Fc fusion)
# chain: EVQLVESGGGLVQAGGSLRLSCAASGRTFDRHTMTWFRQAPGKEREFVATASRIPGDTYYSHSVKGRFTISRDNAKNTVYLQLNNLKPEDTAVYYCAATSAYCSEVDCYEKGSWYDNWGQGIQVTVSS
# notes: heavy chain antibody VHH-hinge-CH2-CH3, human IgG1 constant part; not shown: human IgG1 hinge-CH2-CH3
# B3: PVRIG-A118 (Fc fusion)
# chain: QVQLVESGGGLVQAGGSLRLSCAASETYFDLYVMGWYRQAPGKDRELVATITYTGSIKIVDSVKDRFTISRGDAKNTVSLQMSSLKPEDTAVYFCNADPSGLGRKVYWGQGTQVTVSS
# notes: as for B2
# B4: TIGIT-002-H4L3 (antibody, V domains shown)
# VH: EVQLQESGPGLVKPSETLSLTCAVSGYSITSDSWNWIRQPPGKKLEYIGYISYSGNTYYNPSLKSRVTISRDTSKNQFSLKLSSVTAADTAVYYCARLDFSNYGGAVDYWGQGTTVTVSS
# VL: DIVMTQSPDSLAVSLGERATINCKASQNVRTAVAWYQQKPGQSPKLMIYSASYRYTGVPDRFSGSGSGTDFTLTISSLQAEDVAVYYCQQYYTTPWTFGGGTKVEIK
# notes: Humanized anti-TIGIT antibody
# B5: TIGIT-005-H2L1d (antibody, V domains shown)
# VH: EVQLVQSGAEVKKPGASVKVSCKASGYAFTNYLIEWVRQAPGQRLEWMGVINPGSGGTNYKEKFKGRVTITADKSSSTAYMELSSLRSEDTAVYYCARGEYFFFDYWGQGTTVTVSS
# VL: B4 VL with N28H, R30S, T31N, Q38H, M47L, Y91H, T93N, W96H
# notes: Humanized anti-TIGIT antibody with NG-site mutation in VL
# B6: TIGIT-006-H5L3 (antibody, V domains shown)
# VH: B4 VH with I29M, S33Y, N56R, L98G, F100Y, V107M, D108Y, Y109D
# VL: DIVMTQSPDSLAVSLGERATINCRASQGVSTTIAWYQQKPGQSPKLLIYSASYRYTGVPRFSGSGSGTDFTLTISSLQAEDVAVYYCQQYYSSPFTFGGGTKVEIK
# notes: Humanized anti-TIGIT antibody
# B7: TIGIT-070-H1L1 (antibody, V domains shown)
# VH: EVQLVQSGAEVKKPGASVKVSCKASGYTFTNYYMHWVRQAPGQRLEWMGRIDPDSGGSKYNEKFKSRVTITVDKSASTAYMELSSLRSEDTAVYYCAREGHYGFYSDYWGQGTTVTVSS
# VL: DIQMTQSPSSLSASVGDRVTITCRVSENIYSYLAWYQQKPGKSPKLLIYNAKTLAEGVPSRFSGSGSGTDFTLTISSLQPEDFATYYCQHHYGNPLTFGPGTKVDIK
# notes: Humanized anti-TIGIT antibody
# Target: T1, human PVRIG-his (AcroBiosystems, Cat …)
# Assay: SPR (BIAcore), antibody captured on Protein A chip, human PVRIG-His analyte
# In short: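 Anti-PVRIG antibody captured on a Protein A chip to about 50 RU Rmax, then human PVRIG-His injected at graded concentrations in multi-cycle kinetics (association and dissociation). Chip regenerated with glycine pH 1.5 between cycles; affinity derived from the fitted kinetics.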
Binder,Kd,koff,kon
B1,0.0254 nM,1.29e-05 s⁻¹,507000 M⁻¹ s⁻¹
B2,0.841 nM,0.000443 s⁻¹,527000 M⁻¹ s⁻¹
B3,0.48 nM,0.00114 s⁻¹,2.38e+06 M⁻¹ s⁻¹

# Target: T2, Fusion protein of extracellular domain …
# Assay: BIAcore
Binder,Kd,koff,kon
B4,0.0994 nM,0.000293 s⁻¹,2.95e+06 M⁻¹ s⁻¹
B5,0.0852 nM,0.000257 s⁻¹,3.02e+06 M⁻¹ s⁻¹
B6,0.115 nM,0.000183 s⁻¹,1.6e+06 M⁻¹ s⁻¹
B7,0.251 nM,0.000219 s⁻¹,875000 M⁻¹ s⁻¹

# Target: T5, Full-length cynomolgus monkey TIGIT on CHO-K1 cells (CHO-K1 cynomolgus monkey TIGIT) (cynomolgus monkey)
# T5 construct: NCBI XP_015300911.1
# Assay: FACS; CHO-K1 cynomolgus monkey TIGIT
# In short: (§1)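 Binding curves from flow cytometry on CHO-K1 cells bearing full-length human or cynomolgus monkey TIGIT yielded the EC50. A 3-fold, 12-point antibody series starting at 80 nM before the 1:1 mix with cells in 1% BSA-PBS was incubated at 4° C for 60 min.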
# T5 sequence (chain, as listed by the source limits assumed): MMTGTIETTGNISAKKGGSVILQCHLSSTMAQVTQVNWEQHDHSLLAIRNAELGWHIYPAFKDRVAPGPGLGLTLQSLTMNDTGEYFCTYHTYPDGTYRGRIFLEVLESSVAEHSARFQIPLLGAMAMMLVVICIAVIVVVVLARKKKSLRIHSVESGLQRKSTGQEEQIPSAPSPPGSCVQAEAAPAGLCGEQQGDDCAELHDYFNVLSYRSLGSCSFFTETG
row,Binder,EC50
1,B4,0.723 nM
2,B5,0.631 nM
3,B6,0.922 nM
4,B7,1.05 nM

# Target: T1, human PVRIG-his (AcroBiosystems, Cat …)
# Assay: competition ELISA, PVRIG-His coated, competitor human PVRL2-mFc
# Description: The ELISA plate was pre-coated with 100 μL/well of 0.5 μg/mL human PVRIG-his protein (AcroBiosystems, Cat NO. PVG-H52H4). The tested anti-PVRIG antibodies were diluted from the highest concentration of 16 nM (two-fold concentration). The diluted antibodies were mixed with 18 ng/ml human PVRL2-mFc (AcroBiosystems, Cat NO. CD2-H5257) in equal volume, added into the plate (100 μL/well), and incubated with shaking at room temperature for 2.0 hours. […] A HRP substrate, TMB (Thermo, Cat NO. 34029) was added into wells after washing the plate again for color development. After adding a termination solution to terminate the reaction, the absorbance value was read by a microplate reader (MD i3×). An inhibiting curve was drawn with concentration of antibodies as the abscissa and the corresponding OD value as the ordinate. The IC50 value was calculated by using a Four Parameter Logistic Fit (GraphPadPrism9). The smaller the IC50 value, the stronger the ability of the antibodies inhibits the binding between PVRIG and PVRL2. The positive and negative controls are the same as in Example 8.
row,Binder,IC50
1,B1,0.196 nM
2,B2,0.0571 nM
3,B3,0.0513 nM

# Target: T3, Full-length human TIGIT on CHO-K1 cells …
# Assay: FACS; CHO-K1 human TIGIT low expression strain
# In short: as §1
row,Binder,EC50
1,B4,0.17 nM
2,B5,0.186 nM
3,B6,0.268 nM
4,B7,0.305 nM

# Target: T4, human PVRIG-mFc protein (Acro, …)
# Assay: FACS competition, PVRIG-mFc binding to CHO-K1-CD112 cells, competitor CD112 on cells
# Description: A working solution of human PVRIG-mFc protein (Acro, PVG-H5253) prepared with staining buffer, 1 μg/mL (four-fold concentration), was added into a 96-well plate (50 μL PVRIG-mFc working solution per well). […] The diluted antibodies were added to the well containing 50 μL of PVRIG-mFc. The plate was placed on a microplate shaker at 400 rpm for 1 minute to fully mix the antibodies and PVRIG-mFc proteins, and then incubated at 4° C. for 30 minutes. After the incubation, the cell suspension prepared above (100 μL) was added into the wells, gently mixed with the pipette tip and incubated at 4° C. for 30 minutes. After the incubation, the cells were washed twice with staining buffer (200 μL per well) and centrifuged at 350×g for 5 minutes to discard the supernatant. The PE goat anti-mouse IgG Fc antibody (Biolegend, 405337) was diluted 250 times with staining buffer, added into the washed wells (100 μL per well), mixed well, and stained at 4° C. for 30 minutes. After staining, the cells were washed twice with staining buffer, finally resuspended with 200 μL staining buffer and analyzed by flow cytometry (BD, Canto II). The weaker the fluorescence signal, the stronger the ability of the antibodies blocks the binding of CHO-K1 human CD112 cells to the PVRIG-mFc protein. An antibody binding curve was drawn with concentration of antibodies as the abscissa and the corresponding Mean Fluorescence Intensity (MFI) as the ordinate. The IC50 value of the antibodies and the AUC value of the binding curve were calculated by using a Four Parameter Logistic Fit (GraphPadPrism9). The smaller the IC50 value and AUC value, the stronger the ability of the antibodies competes with CHO-K1-CD112 cells to bind to human PVRIG-mFc protein. […] […] The smaller the percentage value, the stronger the blocking ability of the antibodies.
Binder,% AUC to COM701-hIgG4,% AUC to SRF813-hIgG1,% IC50 to COM701-hIgG4,% IC50 to SRF813-hIgG1
B1,104%,81%,99.1%,91.8%
B2,115%,84.1%,99.7%,97.7%
B3,110%,75.6%,111%,97.4%
